Results published in IntAct's records for PubMed 29039417.

B1: Protein PTHB1 (Homo sapiens), Q3SYG4 (parent)
chain: MSLFKARDWWSTILGDKEEFDQGCLCLANVDNSGNGQDKIIVGSFMGYLRIFSPHPAKTGDGAQAEDLLLEVDLRDPVLQVEVGKFVSGTEMLHLAVLHSRKLCVYSVSGTLGNVEHGNQCQMKLMYEHNLQRTACNMTYGSFGGVKGRDLICIQSMDGMLMVFEQESYAFGRFLPGFLLPGPLAYSSRTDSFLTVSSCQQVESYKYQVLAFATDADKRQETEQQKLGSGKRLVVDWTLNIGEQALDICIVSFNQSASSVFVLGERNFFCLKDNGQIRFMKKLDWSPSCFLPYCSVSEGTINTLIGNHNNMLHIYQDVTLKWATQLPHIPVAVRVGCLHDLKGVIVTLSDDGHLQCSYLGTDPSLFQAPNVQSRELNYDELDVEMKELQKIIKDVNKSQGVWPMTEREDDLNVSVVVSPNFDSVSQATDVEVGTDLVPSVTVKVTLQNRVILQKAKLSVYVQPPLELTCDQFTFEFMTPDLTRTVSFSVYLKRSYTPSELEGNAVVSYSRPTDRNPDGIPRVIQCKFRLPLKLICLPGQPSKTASHKITIDTNKSPVSLLSLFPGFASQSDDDQVNVMGFHFLGGARITVLASKTSQRYRIQSEQFEDLWLITNELILRLQEYFEKQGVKDFACSFSGSIPLQEYFELIDHHFELRINGEKLEELLSERAVQFRAIQRRLLARFKDKTPAPLQHLDTLLDGTYKQVIALADAVEENQGNLFQSFTRLKSATHLVILLIALWQKLSADQVAILEAAFLPLQEDTQELGWEETVDAAISHLLKTCLSKSSKEQALNLNSQLNIPKDTSQLKKHITLLCDRLSKGGRLCLSTDAAAPQTMVMPGGCTTIPESDLEERSVEQDSTELFTNHRHLTAETPRPEVSPLQGVSE
partner: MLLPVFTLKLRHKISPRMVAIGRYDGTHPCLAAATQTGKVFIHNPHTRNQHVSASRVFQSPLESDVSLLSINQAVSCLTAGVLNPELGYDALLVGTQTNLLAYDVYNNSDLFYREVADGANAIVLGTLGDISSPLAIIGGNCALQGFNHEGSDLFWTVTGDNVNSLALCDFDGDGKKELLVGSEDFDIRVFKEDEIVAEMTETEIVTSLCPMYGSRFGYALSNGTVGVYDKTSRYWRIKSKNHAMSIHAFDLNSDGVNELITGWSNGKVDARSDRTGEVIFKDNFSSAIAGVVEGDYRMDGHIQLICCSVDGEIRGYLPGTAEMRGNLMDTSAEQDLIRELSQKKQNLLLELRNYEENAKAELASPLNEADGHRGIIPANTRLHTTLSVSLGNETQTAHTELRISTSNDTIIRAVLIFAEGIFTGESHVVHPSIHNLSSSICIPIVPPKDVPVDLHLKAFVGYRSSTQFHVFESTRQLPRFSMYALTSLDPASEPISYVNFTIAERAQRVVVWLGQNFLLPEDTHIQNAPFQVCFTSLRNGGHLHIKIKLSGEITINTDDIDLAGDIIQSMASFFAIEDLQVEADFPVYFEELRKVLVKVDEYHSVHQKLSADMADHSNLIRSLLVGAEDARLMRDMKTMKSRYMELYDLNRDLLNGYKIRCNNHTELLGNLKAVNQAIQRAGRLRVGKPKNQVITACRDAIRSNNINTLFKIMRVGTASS

Variants of: B1
Settings: with bbs2_human BBS2, Q9BXC9
In the case of W741A, the “effect of a mutation on the interaction” value is reported as “disrupting interaction strength”. With W741E the “effect of a mutation on the interaction” value was “with no effect”. For W741G, the “effect of a mutation on the interaction” value was “disrupting interaction strength”. In the case of F724E, the “effect of a mutation on the interaction” value is reported as “with no effect”. For F724K, the “effect of a mutation on the interaction” value was “with no effect”. With F724A the “effect of a mutation on the interaction” value was “with no effect”. With L736K the “effect of a mutation on the interaction” value was “with no effect”. In the case of L736E, the “effect of a mutation on the interaction” value is reported as “with no effect”. L736A was tested, and the “effect of a mutation on the interaction” value was “with no effect”. A730K was tested, and the “effect of a mutation on the interaction” value was “with no effect”. In the case of A730E, the “effect of a mutation on the interaction” value is reported as “with no effect”. In the case of T725A, the “effect of a mutation on the interaction” value is reported as “with no effect”. With T725K the “effect of a mutation on the interaction” value was “with no effect”. With T725E the “effect of a mutation on the interaction” value was “with no effect”. A739K was tested, and the “effect of a mutation on the interaction” value was “with no effect”. With A739E the “effect of a mutation on the interaction” value was “with no effect”. For K728A, the “effect of a mutation on the interaction” value was “with no effect”. With K728E the “effect of a mutation on the interaction” value was “with no effect”. For R726E, the “effect of a mutation on the interaction” value was “with no effect”. R726K was tested, and the “effect of a mutation on the interaction” value was “with no effect”. For R726A, the “effect of a mutation on the interaction” value was “with no effect”. With D711K the “effect of a mutation on the interaction” value was “with no effect”. D711E was tested, and the “effect of a mutation on the interaction” value was “with no effect”. D711A was tested, and the “effect of a mutation on the interaction” value was “with no effect”. For E714A, the “effect of a mutation on the interaction” value was “with no effect”. In the case of E714K, the “effect of a mutation on the interaction” value is reported as “with no effect”. In the case of A712E, the “effect of a mutation on the interaction” value is reported as “with no effect”. For A712K, the “effect of a mutation on the interaction” value was “with no effect”. L740A was tested, and the “effect of a mutation on the interaction” value was “with no effect”. With L740E the “effect of a mutation on the interaction” value was “with no effect”. With L740K the “effect of a mutation on the interaction” value was “with no effect”. In the case of H732K, the “effect of a mutation on the interaction” value is reported as “with no effect”. For H732E, the “effect of a mutation on the interaction” value was “with no effect”. In the case of H732A, the “effect of a mutation on the interaction” value is reported as “with no effect”. With S723P the “effect of a mutation on the interaction” value was “disrupting interaction strength”. In the case of S723A, the “effect of a mutation on the interaction” value is reported as “with no effect”. For S723K, the “effect of a mutation on the interaction” value was “with no effect”. In the case of S723E, the “effect of a mutation on the interaction” value is reported as “with no effect”. Q722K was tested, and the “effect of a mutation on the interaction” value was “with no effect”. Q722T was tested, and the “effect of a mutation on the interaction” value was “disrupting interaction strength”. With Q722A the “effect of a mutation on the interaction” value was “with no effect”. In the case of Q722E, the “effect of a mutation on the interaction” value is reported as “with no effect”. V713A was tested, and the “effect of a mutation on the interaction” value was “with no effect”. In the case of V713K, the “effect of a mutation on the interaction” value is reported as “with no effect”. V713E was tested, and the “effect of a mutation on the interaction” value was “with no effect”. For L720E, the “effect of a mutation on the interaction” value was “with no effect”. With L720A the “effect of a mutation on the interaction” value was “with no effect”. In the case of L720K, the “effect of a mutation on the interaction” value is reported as “with no effect”. F721K was tested, and the “effect of a mutation on the interaction” value was “with no effect”. For F721E, the “effect of a mutation on the interaction” value was “with no effect”. In the case of F721A, the “effect of a mutation on the interaction” value is reported as “with no effect”. For I735E, the “effect of a mutation on the interaction” value was “with no effect”. For I735K, the “effect of a mutation on the interaction” value was “with no effect”. In the case of I735A, the “effect of a mutation on the interaction” value is reported as “with no effect”. With Q717A the “effect of a mutation on the interaction” value was “with no effect”. Q717E was tested, and the “effect of a mutation on the interaction” value was “with no effect”. Q717K was tested, and the “effect of a mutation on the interaction” value was “with no effect”. G718E was tested, and the “effect of a mutation on the interaction” value was “with no effect”. In the case of G718D, the “effect of a mutation on the interaction” value is reported as “disrupting interaction strength”. With G718K the “effect of a mutation on the interaction” value was “with no effect”. With G718A the “effect of a mutation on the interaction” value was “with no effect”. For L737A, the “effect of a mutation on the interaction” value was “with no effect”. For L737E, the “effect of a mutation on the interaction” value was “with no effect”. With L737K the “effect of a mutation on the interaction” value was “with no effect”. For L727K, the “effect of a mutation on the interaction” value was “with no effect”. L727A was tested, and the “effect of a mutation on the interaction” value was “with no effect”. L727E was tested, and the “effect of a mutation on the interaction” value was “with no effect”. With I738A the “effect of a mutation on the interaction” value was “with no effect”. For I738K, the “effect of a mutation on the interaction” value was “with no effect”. In the case of I738E, the “effect of a mutation on the interaction” value is reported as “with no effect”. With E715A the “effect of a mutation on the interaction” value was “with no effect”. With E715K the “effect of a mutation on the interaction” value was “with no effect”. V734E was tested, and the “effect of a mutation on the interaction” value was “with no effect”. For V734K, the “effect of a mutation on the interaction” value was “with no effect”. V734A was tested, and the “effect of a mutation on the interaction” value was “with no effect”. In the case of S729K, the “effect of a mutation on the interaction” value is reported as “with no effect”. For S729E, the “effect of a mutation on the interaction” value was “with no effect”. For S729A, the “effect of a mutation on the interaction” value was “with no effect”. With L733E the “effect of a mutation on the interaction” value was “with no effect”. For L733A, the “effect of a mutation on the interaction” value was “with no effect”. L733K was tested, and the “effect of a mutation on the interaction” value was “with no effect”. T731K was tested, and the “effect of a mutation on the interaction” value was “with no effect”. In the case of T731E, the “effect of a mutation on the interaction” value is reported as “with no effect”. T731A was tested, and the “effect of a mutation on the interaction” value was “with no effect”. With N716K the “effect of a mutation on the interaction” value was “with no effect”. For N716E, the “effect of a mutation on the interaction” value was “with no effect”. In the case of N716A, the “effect of a mutation on the interaction” value is reported as “disrupting interaction strength”. For N719A, the “effect of a mutation on the interaction” value was “with no effect”. N719E was tested, and the “effect of a mutation on the interaction” value was “with no effect”. With N719K the “effect of a mutation on the interaction” value was “with no effect”.

Variants of: B1
Settings: with bbs2_human BBS2, Q9BXC9
Remark: another data set of the same source
With W741A the “effect of a mutation on the interaction” value was “with no effect”.
